Reference: the RNAGym collection of RNA variant scans (doi:10.1021/acssynbio.7b00057)

B1: Pistol ribozyme (parent)
chain: GGGUCGUUGUUCCAUAAUCGCGUGGAUAUGGCACGCAAGUUUCUACCGGGCACCGUAAAUGUCCGACUGGAGCCGUUCGGGCGGCUAUAAACAGACCUCAGGCCCGAAGCGUGGCGGCACCUGCCGCCGGUGGUAAAAAAGAUCGGAAGAGCACACGUCU

Variants of: B1
Test: aptazyme ON/OFF ratio, guanine; higher = stronger switching; co-transcriptional cleavage with and without guanine

Variant | aptazyme ON/OFF ratio
GGGUCGAGAUCGUAUAAUCGCGUGGAUAUGGCACGCAAGUUUCUACCGGGCACCGUAAAUGUCCGACUGGAGCCGUUCGGGCGGCUAUAAACAGACCUCAGGCCCGAAGCGUGGCGGCACCUGCCGCCGGUGGUAAAAAAGAUCGGAAGAGCACACGUCU [U7A U8G G9A U11C C12G C13U] | 1.14
GGGUCGCUCAGUAAUAAUCGCGUGGAUAUGGCACGCAAGUUUCUACCGGGCACCGUAAAUGUCCGACUGGAGCCGUUCGGGCGGCUAUAAACAGACCUCAGGCCCGAAGCGUGGCGGCACCUGCCGCCGGUGGUAAAAAAGAUCGGAAGAGCACACGUCU [U7C G9C U10A U11G C12U C13A] | 1.12
GGGUCGAAUACCGAUAAUCGCGUGGAUAUGGCACGCAAGUUUCUACCGGGCACCGUAAAUGUCCGACUGGAGCCGUUCGGGCGGCUAUAAACAGACCUCAGGCCCGAAGCGUGGCGGCACCUGCCGCCGGUGGUAAAAAAGAUCGGAAGAGCACACGUCU [U7A U8A G9U U10A U11C C13G] | 1.1
GGGUCGACCCCGAAUAAUCGCGUGGAUAUGGCACGCAAGUUUCUACCGGGCACCGUAAAUGUCCGACUGGAGCCGUUCGGGCGGCUAUAAACAGACCUCAGGCCCGAAGCGUGGCGGCACCUGCCGCCGGUGGUAAAAAAGAUCGGAAGAGCACACGUCU [U7A U8C G9C U10C U11C C12G C13A] | 1.02
GGGUCGCAAAGAUAUAAUCGCGUGGAUAUGGCACGCAAGUUUCUACCGGGCACCGUAAAUGUCCGACUGGAGCCGUUCGGGCGGCUAUAAACAGACCUCAGGCCCGAAGCGUGGCGGCACCUGCCGCCGGUGGUAAAAAAGAUCGGAAGAGCACACGUCU [U7C U8A G9A U10A U11G C12A C13U] | 1.18
GGGUCGAUAGGACAUAAUCGCGUGGAUAUGGCACGCAAGUUUCUACCGGGCACCGUAAAUGUCCGACUGGAGCCGUUCGGGCGGCUAUAAACAGACCUCAGGCCCGAAGCGUGGCGGCACCUGCCGCCGGUGGUAAAAAAGAUCGGAAGAGCACACGUCU [U7A G9A U10G U11G C12A] | 1.06
GGGUCGUGAGUCGAUAAUCGCGUGGAUAUGGCACGCAAGUUUCUACCGGGCACCGUAAAUGUCCGACUGGAGCCGUUCGGGCGGCUAUAAACAGACCUCAGGCCCGAAGCGUGGCGGCACCUGCCGCCGGUGGUAAAAAAGAUCGGAAGAGCACACGUCU [U8G G9A U10G C13G] | 1.34
GGGUCGAGCCGUGAUAAUCGCGUGGAUAUGGCACGCAAGUUUCUACCGGGCACCGUAAAUGUCCGACUGGAGCCGUUCGGGCGGCUAUAAACAGACCUCAGGCCCGAAGCGUGGCGGCACCUGCCGCCGGUGGUAAAAAAGAUCGGAAGAGCACACGUCU [U7A U8G G9C U10C U11G C12U C13G] | 1.15
GGGUCGAUUAAGUAUAAUCGCGUGGAUAUGGCACGCAAGUUUCUACCGGGCACCGUAAAUGUCCGACUGGAGCCGUUCGGGCGGCUAUAAACAGACCUCAGGCCCGAAGCGUGGCGGCACCUGCCGCCGGUGGUAAAAAAGAUCGGAAGAGCACACGUCU [U7A G9U U10A U11A C12G C13U] | 1.19
GGGUCGAUCGAAGAUAAUCGCGUGGAUAUGGCACGCAAGUUUCUACCGGGCACCGUAAAUGUCCGACUGGAGCCGUUCGGGCGGCUAUAAACAGACCUCAGGCCCGAAGCGUGGCGGCACCUGCCGCCGGUGGUAAAAAAGAUCGGAAGAGCACACGUCU [U7A G9C U10G U11A C12A C13G] | 1.08
GGGUCGUGACAUCAUAAUCGCGUGGAUAUGGCACGCAAGUUUCUACCGGGCACCGUAAAUGUCCGACUGGAGCCGUUCGGGCGGCUAUAAACAGACCUCAGGCCCGAAGCGUGGCGGCACCUGCCGCCGGUGGUAAAAAAGAUCGGAAGAGCACACGUCU [U8G G9A U10C U11A C12U] | 1.1
GGGUCGCGACGUAAUAAUCGCGUGGAUAUGGCACGCAAGUUUCUACCGGGCACCGUAAAUGUCCGACUGGAGCCGUUCGGGCGGCUAUAAACAGACCUCAGGCCCGAAGCGUGGCGGCACCUGCCGCCGGUGGUAAAAAAGAUCGGAAGAGCACACGUCU [U7C U8G G9A U10C U11G C12U C13A] | 1.26
GGGUCGCCCCUUGAUAAUCGCGUGGAUAUGGCACGCAAGUUUCUACCGGGCACCGUAAAUGUCCGACUGGAGCCGUUCGGGCGGCUAUAAACAGACCUCAGGCCCGAAGCGUGGCGGCACCUGCCGCCGGUGGUAAAAAAGAUCGGAAGAGCACACGUCU [U7C U8C G9C U10C C12U C13G] | 1.14
GGGUCGCCGGUUAAUAAUCGCGUGGAUAUGGCACGCAAGUUUCUACCGGGCACCGUAAAUGUCCGACUGGAGCCGUUCGGGCGGCUAUAAACAGACCUCAGGCCCGAAGCGUGGCGGCACCUGCCGCCGGUGGUAAAAAAGAUCGGAAGAGCACACGUCU [U7C U8C U10G C12U C13A] | 1.08
GGGUCGGCUACGUAUAAUCGCGUGGAUAUGGCACGCAAGUUUCUACCGGGCACCGUAAAUGUCCGACUGGAGCCGUUCGGGCGGCUAUAAACAGACCUCAGGCCCGAAGCGUGGCGGCACCUGCCGCCGGUGGUAAAAAAGAUCGGAAGAGCACACGUCU [U7G U8C G9U U10A U11C C12G C13U] | 1.31
GGGUCGUAAUAUAAUAAUCGCGUGGAUAUGGCACGCAAGUUUCUACCGGGCACCGUAAAUGUCCGACUGGAGCCGUUCGGGCGGCUAUAAACAGACCUCAGGCCCGAAGCGUGGCGGCACCUGCCGCCGGUGGUAAAAAAGAUCGGAAGAGCACACGUCU [U8A G9A U11A C12U C13A] | 1.39
GGGUCGACGUAACAUAAUCGCGUGGAUAUGGCACGCAAGUUUCUACCGGGCACCGUAAAUGUCCGACUGGAGCCGUUCGGGCGGCUAUAAACAGACCUCAGGCCCGAAGCGUGGCGGCACCUGCCGCCGGUGGUAAAAAAGAUCGGAAGAGCACACGUCU [U7A U8C U11A C12A] | 1.32
GGGUCGGACCGGUAUAAUCGCGUGGAUAUGGCACGCAAGUUUCUACCGGGCACCGUAAAUGUCCGACUGGAGCCGUUCGGGCGGCUAUAAACAGACCUCAGGCCCGAAGCGUGGCGGCACCUGCCGCCGGUGGUAAAAAAGAUCGGAAGAGCACACGUCU [U7G U8A G9C U10C U11G C12G C13U] | 1.02

Variant | aptazyme ON/OFF ratio
GGGUCGUUGGUAUAUAAUCGCGUGGAUAUGGCACGCAAGUUUCUACCGGGCACCGUAAAUGUCCGACUGGAGCCGUUCGGGCGGCUAUAAACAGACCUCAGGCCCGAAGCGUGGCGGCACCUGCCGCCGGUGGUAAAAAAGAUCGGAAGAGCACACGUCU [U10G C12A C13U] | 1.19
GGGUCGUCUUCGAAUAAUCGCGUGGAUAUGGCACGCAAGUUUCUACCGGGCACCGUAAAUGUCCGACUGGAGCCGUUCGGGCGGCUAUAAACAGACCUCAGGCCCGAAGCGUGGCGGCACCUGCCGCCGGUGGUAAAAAAGAUCGGAAGAGCACACGUCU [U8C G9U U11C C12G C13A] | 1.13
GGGUCGCUCCUACAUAAUCGCGUGGAUAUGGCACGCAAGUUUCUACCGGGCACCGUAAAUGUCCGACUGGAGCCGUUCGGGCGGCUAUAAACAGACCUCAGGCCCGAAGCGUGGCGGCACCUGCCGCCGGUGGUAAAAAAGAUCGGAAGAGCACACGUCU [U7C G9C U10C C12A] | 1.04
GGGUCGUCUCCGAAUAAUCGCGUGGAUAUGGCACGCAAGUUUCUACCGGGCACCGUAAAUGUCCGACUGGAGCCGUUCGGGCGGCUAUAAACAGACCUCAGGCCCGAAGCGUGGCGGCACCUGCCGCCGGUGGUAAAAAAGAUCGGAAGAGCACACGUCU [U8C G9U U10C U11C C12G C13A] | 1.06
GGGUCGCACUUAGAUAAUCGCGUGGAUAUGGCACGCAAGUUUCUACCGGGCACCGUAAAUGUCCGACUGGAGCCGUUCGGGCGGCUAUAAACAGACCUCAGGCCCGAAGCGUGGCGGCACCUGCCGCCGGUGGUAAAAAAGAUCGGAAGAGCACACGUCU [U7C U8A G9C C12A C13G] | 1.05
GGGUCGGAACUUCAUAAUCGCGUGGAUAUGGCACGCAAGUUUCUACCGGGCACCGUAAAUGUCCGACUGGAGCCGUUCGGGCGGCUAUAAACAGACCUCAGGCCCGAAGCGUGGCGGCACCUGCCGCCGGUGGUAAAAAAGAUCGGAAGAGCACACGUCU [U7G U8A G9A U10C C12U] | 1.09
GGGUCGGUUUCAUAUAAUCGCGUGGAUAUGGCACGCAAGUUUCUACCGGGCACCGUAAAUGUCCGACUGGAGCCGUUCGGGCGGCUAUAAACAGACCUCAGGCCCGAAGCGUGGCGGCACCUGCCGCCGGUGGUAAAAAAGAUCGGAAGAGCACACGUCU [U7G G9U U11C C12A C13U] | 1.41
GGGUCGAAGGAGAAUAAUCGCGUGGAUAUGGCACGCAAGUUUCUACCGGGCACCGUAAAUGUCCGACUGGAGCCGUUCGGGCGGCUAUAAACAGACCUCAGGCCCGAAGCGUGGCGGCACCUGCCGCCGGUGGUAAAAAAGAUCGGAAGAGCACACGUCU [U7A U8A U10G U11A C12G C13A] | 1.2
GGGUCGUAUUGACAUAAUCGCGUGGAUAUGGCACGCAAGUUUCUACCGGGCACCGUAAAUGUCCGACUGGAGCCGUUCGGGCGGCUAUAAACAGACCUCAGGCCCGAAGCGUGGCGGCACCUGCCGCCGGUGGUAAAAAAGAUCGGAAGAGCACACGUCU [U8A G9U U11G C12A] | 1.07
GGGUCGGCUGCUUAUAAUCGCGUGGAUAUGGCACGCAAGUUUCUACCGGGCACCGUAAAUGUCCGACUGGAGCCGUUCGGGCGGCUAUAAACAGACCUCAGGCCCGAAGCGUGGCGGCACCUGCCGCCGGUGGUAAAAAAGAUCGGAAGAGCACACGUCU [U7G U8C G9U U10G U11C C12U C13U] | 1.16
GGGUCGCGUACUAAUAAUCGCGUGGAUAUGGCACGCAAGUUUCUACCGGGCACCGUAAAUGUCCGACUGGAGCCGUUCGGGCGGCUAUAAACAGACCUCAGGCCCGAAGCGUGGCGGCACCUGCCGCCGGUGGUAAAAAAGAUCGGAAGAGCACACGUCU [U7C U8G G9U U10A U11C C12U C13A] | 1.09
GGGUCGAAUGCGAAUAAUCGCGUGGAUAUGGCACGCAAGUUUCUACCGGGCACCGUAAAUGUCCGACUGGAGCCGUUCGGGCGGCUAUAAACAGACCUCAGGCCCGAAGCGUGGCGGCACCUGCCGCCGGUGGUAAAAAAGAUCGGAAGAGCACACGUCU [U7A U8A G9U U10G U11C C12G C13A] | 1.09
GGGUCGAAUCGGCAUAAUCGCGUGGAUAUGGCACGCAAGUUUCUACCGGGCACCGUAAAUGUCCGACUGGAGCCGUUCGGGCGGCUAUAAACAGACCUCAGGCCCGAAGCGUGGCGGCACCUGCCGCCGGUGGUAAAAAAGAUCGGAAGAGCACACGUCU [U7A U8A G9U U10C U11G C12G] | 1.15
GGGUCGGCUCACGAUAAUCGCGUGGAUAUGGCACGCAAGUUUCUACCGGGCACCGUAAAUGUCCGACUGGAGCCGUUCGGGCGGCUAUAAACAGACCUCAGGCCCGAAGCGUGGCGGCACCUGCCGCCGGUGGUAAAAAAGAUCGGAAGAGCACACGUCU [U7G U8C G9U U10C U11A C13G] | 1.06
GGGUCGCUUGAGUAUAAUCGCGUGGAUAUGGCACGCAAGUUUCUACCGGGCACCGUAAAUGUCCGACUGGAGCCGUUCGGGCGGCUAUAAACAGACCUCAGGCCCGAAGCGUGGCGGCACCUGCCGCCGGUGGUAAAAAAGAUCGGAAGAGCACACGUCU [U7C G9U U10G U11A C12G C13U] | 1.12
GGGUCGGACCCGAAUAAUCGCGUGGAUAUGGCACGCAAGUUUCUACCGGGCACCGUAAAUGUCCGACUGGAGCCGUUCGGGCGGCUAUAAACAGACCUCAGGCCCGAAGCGUGGCGGCACCUGCCGCCGGUGGUAAAAAAGAUCGGAAGAGCACACGUCU [U7G U8A G9C U10C U11C C12G C13A] | 1.05
GGGUCGAGCCUAAAUAAUCGCGUGGAUAUGGCACGCAAGUUUCUACCGGGCACCGUAAAUGUCCGACUGGAGCCGUUCGGGCGGCUAUAAACAGACCUCAGGCCCGAAGCGUGGCGGCACCUGCCGCCGGUGGUAAAAAAGAUCGGAAGAGCACACGUCU [U7A U8G G9C U10C C12A C13A] | 1.08
GGGUCGUAGCAGUAUAAUCGCGUGGAUAUGGCACGCAAGUUUCUACCGGGCACCGUAAAUGUCCGACUGGAGCCGUUCGGGCGGCUAUAAACAGACCUCAGGCCCGAAGCGUGGCGGCACCUGCCGCCGGUGGUAAAAAAGAUCGGAAGAGCACACGUCU [U8A U10C U11A C12G C13U] | 1.34
